According to patent publication US8465945B2, “Method for production and use of mite group 1 proteins” (Merck Patent GmbH, priority 1999, dated 2013):

Columns and labels:
[1] = system: anti-Der f 1 MAb 6A8 (capture) and anti-Der f 1 MAb 4C1 (detection); assay: Monoclonal Capture ELISA; format: binding
Protocol: Assays were carried out as follows. A microtiter plate as described in Example 5 was coated overnight at 4° C. with 100 ng/well of anti-Der f 1 protein monoclonal antibody 6A8, denoted herein as anti-Der f 1 MAb 6A8, provided by Dr. Martin Chapman. The plate was washed in the manner described above. The following proteins were then added to wells, having been diluted in Assay Buffer in a 2-fold dilution series, from 0.75 to 50 ng/well: Heska native Derf1, P. pastoris-expressed PDerf1303b, and E. coli-expressed PDerf1303c. After incubation for 1 hour at room temperature, plates were washed as described in Example 5. Then 100 μl per well of a 1:1000 dilution in Assay Buffer of biotinylated anti-Der f 1 monoclonal antibody 4C1, also denoted anti-Der f 1 MAb 4C1, provided by Dr. Martin Chapman, was added for 1 hour at room temperature. Plates were washed, streptavidin-HRP conjugate was added, and plates were developed as described in Example 5.

[2] = system: IgE from mite-allergic dog sera; assay: ELISA, binding of IgE from dog sera to coated Der f 1 proteins or mite extracts, detected with FcεR1α-biotin
Protocol: Native or recombinant Der f 1 proteins in 100 μl CBC buffer (50 mM sodium carbonate, pH 9.6) were coated onto wells (100 ng per well) of Immulon II microtiter plates (available from Dynex Technologies, Chantilly, Va.) by incubation at 4° C., covered, overnight. Excess fluid was removed and wells were blocked with 200 μl Assay Buffer (4% fetal calf serum (available from Summit Laboratories, Fort Collins, Colo.) in phosphate buffered saline (PBS, recipe in Sambrook, ibid.), plus 0.05% Tween-20 (available from Sigma, St. Louis, Mo.)) for one hour at room temperature. Plates were then washed for 4 cycles on an automatic plate washer (Ultrawash, available from Dynatech Laboratories) using PBS with 0.05% Tween-20. […] Control wells were treated identically except that no serum was added. Plates were then washed as described above. Biotinylated human IgE receptor alpha chain (FcεR1α-biotin) (100 μl of 1.3 ng/ml) prepared as described in U.S. Pat. No. 5,945,294, ibid., was added and incubated for one hour at room temperature. After this incubation, plates were washed as described above. Streptavidin-horseradish peroxidase conjugate (0.5 mg/ml, available from KPL Labs, Gaithersburg, Md.) was added at a 1:5000 dilution in Assay Buffer for one hour at room temperature, after which plates were washed as described above. TMB Peroxidase substrate system, 2 part (available from KPL Labs, #0-76-00), added at 100 μl per well, was used according to the manufacturer's directions. The color reaction was allowed to proceed until good color development was reached (about 10-15 min); then the reaction was stopped with 100 μl per well of 1 M phosphoric acid. Bound IgE was determined by measuring absorbance (Optical Density, or OD) at 450 nm (nanometers) using an ELISA plate reader (such as Spectramax”, Molecular Devices, Sunnyvale, Calif.). Background OD readings in the control wells were subtracted from all numbers. Results are reported in Tables 1, 2 and 3 as OD multiplied by 1000. OD numbers greater than 100 are considered to be positive for a reaction with IgE. P. pastoris-expressed proteins are denoted in the Tables as Pichia expressed proteins.

[3] = system: IgE from mite-allergic or normal human sera; assay: ELISA, binding of IgE from human sera to coated Der f 1 proteins or mite extracts, detected with FcεR1α-biotin

B1: PDerf1303c: Recombinant pro-form of Der f 1 (SEQ ID NO:35) expressed in E. coli from nDerf1909c, refolded from inclusion bodies (protein, listed as Dermatophagoides farinae)
chain: RPASIKTFEEFKKAFNKNYATVEEEEVARKNFLESLKYVEANKGAINHLSDLSLDEFKNRYLMSAEAFEQLKTQFDLNAETSACRINSVNVPSELDLRSLRTVTPIRMQGGCGSCWAFSGVAATESAYLAYRNTSLDLSEQELVDCASQHGCHGDTIPRGIEYIQQNGVVEERSYPYVAREQRCRRPNSQHYGISNYCQIYPPDVKQIREALTQTHTAIAVIIGIKDLRAFQHYDGRTIIQHDNGYQPNYHAVNIVGYGSTQGVDYWIVRNSWDTTWGDSGYGYFQAGNNLMMIEQYPYVVIM
[1]; 0.75 ng protein per well
  OD, protein captured by MAb 6A8 and detected by MAb 4C1: 136 OD
[1]; 1.5 ng protein per well
  OD, protein captured by MAb 6A8 and detected by MAb 4C1: 268 OD
[1]; 2.5 ng protein per well
  OD, protein captured by MAb 6A8 and detected by MAb 4C1: 1372 OD
[1]; 3.1 ng protein per well
  OD, protein captured by MAb 6A8 and detected by MAb 4C1: 503 OD
[1]; 6.25 ng protein per well
  OD, protein captured by MAb 6A8 and detected by MAb 4C1: 890 OD
[1]; 25 ng protein per well
  OD, protein captured by MAb 6A8 and detected by MAb 4C1: 1770 OD
[1]; 50 ng protein per well
  OD, protein captured by MAb 6A8 and detected by MAb 4C1: 1983 OD
[2]; Assay Number 1, serum dog pool
  OD, bound IgE: 615 OD multiplied by 1000
[2]; Assay Number 1, serum dog-1
  OD, bound IgE: 0 OD multiplied by 1000
[2]; Assay Number 1, serum dog-2
  OD, bound IgE: 258 OD multiplied by 1000
[2]; Assay Number 1, serum dog-3
  OD, bound IgE: 45 OD multiplied by 1000
[2]; Assay Number 2, dog sera pool A 146
  OD, bound IgE: 489 OD multiplied by 1000
[2]; Assay Number 2, dog sera pool KS338
  OD, bound IgE: 68 OD multiplied by 1000
[2]; Table 1
  dog serum samples bound, of those that bound to native Der f 1 proteins: 1 of 2
[3]; Assay Number 1, serum human 1916
  OD, bound IgE: 18 OD multiplied by 1000
[3]; Assay Number 1, serum human3848
  OD, bound IgE: 2291 OD multiplied by 1000
[3]; Assay Number 1, serum human 3958
  OD, bound IgE: 147 OD multiplied by 1000
[3]; Assay Number 1, serum human 3960
  OD, bound IgE: 1442 OD multiplied by 1000
[3]; Assay Number 1, serum human 3961
  OD, bound IgE: 67 OD multiplied by 1000
[3]; Assay Number 1, serum human 3987
  OD, bound IgE: 1416 OD multiplied by 1000
[3]; Assay Number 1, serum human 4289
  OD, bound IgE: 29 OD multiplied by 1000
[3]; Assay Number 1, serum human 4467
  OD, bound IgE: 236 OD multiplied by 1000
[3]; Assay Number 1, serum human 5207
  OD, bound IgE: 1902 OD multiplied by 1000
[3]; Assay Number 1, serum human pool
  OD, bound IgE: 883 OD multiplied by 1000
[3]; Assay Number 2, serum Heska human B
  OD, bound IgE: 0 OD multiplied by 1000
[3]; Assay Number 2, serum Heska human C
  OD, bound IgE: 4 OD multiplied by 1000
[3]; Assay Number 2, serum Heska human D
  OD, bound IgE: 0 OD multiplied by 1000
[3]; Assay Number 2, serum Heska human E
  OD, bound IgE: 10 OD multiplied by 1000
[3]; Assay Number 2, serum Heska human F
  OD, bound IgE: 0 OD multiplied by 1000
[3]; Assay Number 2, serum Heska human G
  OD, bound IgE: 0 OD multiplied by 1000
[3]; Assay Number 2, serum Heska human H
  OD, bound IgE: 0 OD multiplied by 1000
[3]; Assay Number 2, serum Heska human I
  OD, bound IgE: 1 OD multiplied by 1000
[3]; Assay Number 2, serum Heska human J
  OD, bound IgE: 0 OD multiplied by 1000
[3]; Assay Number 2, serum Heska human K
  OD, bound IgE: 0 OD multiplied by 1000
[3]; Assay Number 2, serum Heska human L
  OD, bound IgE: 0 OD multiplied by 1000
[3]; Assay Number 2, serum Heska human M
  OD, bound IgE: 0 OD multiplied by 1000
[3]; Assay Number 2, serum Heska human N
  OD, bound IgE: 24 OD multiplied by 1000
[3]; Assay Number 2, serum Heska human O
  OD, bound IgE: 2 OD multiplied by 1000
[3]; Assay Number 2, serum Heska human P
  OD, bound IgE: 0 OD multiplied by 1000
[3]; Assay Number 2, serum Heska human Q
  OD, bound IgE: 0 OD multiplied by 1000
[3]; Assay Number 2, serum Heska human R
  OD, bound IgE: 0 OD multiplied by 1000
[3]; Assay Number 2, serum human 1916
  OD, bound IgE: 21 OD multiplied by 1000
[3]; Assay Number 2, serum human 3848
  OD, bound IgE: 2378 OD multiplied by 1000
[3]; Assay Number 2, serum human 3958
  OD, bound IgE: 247 OD multiplied by 1000
[3]; Assay Number 2, serum human 3960
  OD, bound IgE: 944 OD multiplied by 1000
[3]; Assay Number 2, serum human 3961
  OD, bound IgE: 46 OD multiplied by 1000
[3]; Assay Number 2, serum human 3987
  OD, bound IgE: 1477 OD multiplied by 1000
[3]; Assay Number 2, serum human 4289
  OD, bound IgE: 47 OD multiplied by 1000
[3]; Assay Number 2, serum human 4467
  OD, bound IgE: 277 OD multiplied by 1000
[3]; Assay Number 2, serum human 5207
  OD, bound IgE: 2122 OD multiplied by 1000
[3]; Assay Number 2, serum human pool
  OD, bound IgE: 1161 OD multiplied by 1000
[3]; Table 1, 9 human samples (8 sera and pool), OD numbers greater than 100 positive
  reactivity: share of human serum samples reactive to native Der f 1 proteins that are also reactive to the recombinant protein: 78%
[3]; Table 2, 10 human serum samples
  reactivity: share of human serum samples reactive to native Der f 1 proteins that are also reactive to the recombinant protein: 70%

B2: PDerf1223b: Recombinant mature form of Der f 1 (SEQ ID NO:32) expressed by P. pastoris from nDerf1669b (protein, listed as Dermatophagoides farinae)
chain: TSACRINSVNVPSELDLRSLRTVTPIRMQGGCGSCWAFSGVAATESAYLAYRNTSLDLSEQELVDCASQHGCHGDTIPRGIEYIQQNGVVEERSYPYVAREQRCRRPNSQHYGISNYCQIYPPDVKQIREALTQTHTAIAVIIGIKDLRAFQHYDGRTIIQHDNGYQPNYHAVNIVGYGSTQGVDYWIVRNSWDTTWGDSGYGYFQAGNNLMMIEQYPYVVIM
[3]; Table 3, sera 429, PDerf1303b preparation number A166-26, PDerf1223b preparation 1000-7
  OD, bound IgE: 63 OD multiplied by 1000
[3]; Table 3, sera 1916, PDerf1303b preparation number A166-26, PDerf1223b preparation 1000-7
  OD, bound IgE: 0 OD multiplied by 1000
[3]; Table 3, sera 3848, PDerf1303b preparation number A166-26, PDerf1223b preparation 1000-7
  OD, bound IgE: 1253 OD multiplied by 1000
[3]; Table 3, sera 3958, PDerf1303b preparation number A166-26, PDerf1223b preparation 1000-7
  OD, bound IgE: 1224 OD multiplied by 1000
[3]; Table 3, sera 3960, PDerf1303b preparation number A166-26, PDerf1223b preparation 1000-7
  OD, bound IgE: 634 OD multiplied by 1000
[3]; Table 3, sera 3961, PDerf1303b preparation number A166-26, PDerf1223b preparation 1000-7
  OD, bound IgE: 301 OD multiplied by 1000
[3]; Table 3, sera 3987, PDerf1303b preparation number A166-26, PDerf1223b preparation 1000-7
  OD, bound IgE: 1078 OD multiplied by 1000
[3]; Table 3, sera 4467, PDerf1303b preparation number A166-26, PDerf1223b preparation 1000-7
  OD, bound IgE: 432 OD multiplied by 1000
[3]; Table 3, sera 5207, PDerf1303b preparation number A166-26, PDerf1223b preparation 1000-7
  OD, bound IgE: 1096 OD multiplied by 1000
[3]; Table 3, sera human pool, PDerf1303b preparation number A166-26, PDerf1223b preparation 1000-7
  OD, bound IgE: 774 OD multiplied by 1000
